The values that follow come from publication PMC5626764 (2017).

The assay deals with T1, ephrinB2-Fc (human ephrinB2 residues 1-229, Factor XA cleavage site, human IgG1 residues 100-330) (human, UniProt P52799 28-229).
T1 chain: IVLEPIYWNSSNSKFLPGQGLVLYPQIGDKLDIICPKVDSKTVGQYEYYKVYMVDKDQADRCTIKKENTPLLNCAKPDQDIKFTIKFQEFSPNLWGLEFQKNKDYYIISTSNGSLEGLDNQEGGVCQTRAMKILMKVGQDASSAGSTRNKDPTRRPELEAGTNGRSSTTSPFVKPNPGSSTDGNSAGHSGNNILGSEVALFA
As to the kind of experiment: ELISA. (ELISA stands for enzyme-linked immunosorbent assay.)

B1: Wildtype NiV G ectodomain (Nipah virus attachment glycoprotein G, residues 71-602, N-terminal His6-tag) (domain or fragment)
chain: QNYTRSTDNQAVIKDALQGIQQQIKGLADKIGTEIGPKVSLIDTSSTITIPANIGLLGSKISQSTASINENVNEKCKFTLPPLKIHECNISCPNPLPFREYRPQTEGVSNLVGLPNNICLQKTSNQILKPKLISYTLPVVGQSGTCITDPLLAMDEGYFAYSHLERIGSCSRGVSKQRIIGVGEVLDRGDEVPSLFMTNVWTPPNPNTVYHCSAVYNNEFYYVLCAVSTVGDPILNSTYWSGSLMMTRLAVKPKSNGGGYNQHQLALRSIEKGRYDKVMPYGPSGIKQGDTLYFPAVGFLVRTEFKYNDSNCPITKCQYSKPENCRLSMGIRPNSHYILRSGLLKYNLSDGENPKVVFIEISDQRLSIGSPSKIYDSLGQPVFYQASFSWDTMIKFGDVLTVNPLVVNWRNNTVISRPGQSQCPRFNTCPEICWEGVYNDAFLIDRINWISAGVFLDSNQTAENPVFTVFKDNEILYRAQLASEDTNAQKTITNCFLLKNKIWCISLVEIYDTGDNVIRPKLFAVKIPEQCT
In general, Ki refers to a measure of affinity in units of concentration, obtained from inhibition or displacement. B1 came in with a Ki of 38 pM.
